Data reported in the DeepSol protein solubility set.

Assay: soluble on expression in E. coli; label from the status in PepcDB or PDB records

Sequence	soluble on expression in E. coli
MSLGVKVKVINGGVLISQDLSCAGQVSTSVALPILGACGARPTVLPTAILSTHTGFKDNTYLDLSNEMSRIMSHWQKIDLEFKAIYLGYLGKEALDFWIKNIEQIIRTNQVVLIDPAMADHGKMYRGLDTDYIKKMRQLIFKATILTPNITEAAFLLNEDIPENSLEKAQVLAEKLVQRFAIPNVIITGITLSKDKIGEVGITKEGKWSIIQEKMPGDFFGTGDMFASAFLAAVLYGKNLEKSCAIAAEFVKLAIIDMDQKLESLFGPNYAAGLPWLLSELEKEGHHHHHH	soluble
ANEVNVYSYRQPYLIEPMLKNFEKDTGIKVNIIFADKGLVDRVKQEGELSPADVLLTVDISRVMEIVNADLAQKIDSKVLEKNIPAQFRDSNDQWFGLTTRARVIYTSKDRVGKLPAGFDYLDLAKPEYKGKVCVRSGKNSYNVSLFAAMIEHYGIEKTKAFLEGLKANLARKPQGGDRDQVKAIKEGICDYSIGNSYYYGKMLDDEKQKSWAEAAIINFPSGEHGTHKNISGVVIAKHSPNKANAVKLIEYLSGEKAQGLYAELNHEYPVKEGIEPSAIVKGWGTFKSDTIKLEDIAKNYEAALKLVDEVKFDDFSEKK	soluble
MTEEVGQKLLESLSLFKLGDIGYARIECELLTTFLEEQLENNLDSLSIHELSTNLIRNRICCREFIESRPAKKWVFLIFRLARTLFRDKTRIATFHSVNLHSEFVQVFWRNLTYQTKSYRNCKFQTFQFIASRFLRSEHDWNVTVVNCLNVTQKLIDNGENARKFVDCNLEDAVLVLLATRQMTVLQHSLEILGRLSDWSTTCRENLLCISLLRILSCEEQAREQIRIYDGVPTLLGLLSIKNSRLQWHVAWTLAQLAEQHETSLEIAQLGGISLIFAAISNPKPPGKAVGDWVAMLTGLTALLAQLAQASSNQQLMSNANGVYILGKLLAIKKNVTTDETIDSWDLLQCSIFRVLRLMYTFERSRQLLKKVLPTEIFEKFVDVGNYNSVLTDYDQIAKMYDNLIEENIEIMKDWETVNERRQAVGEVGEYELLDQLGAGAFGCVYTVRKKAQSHSENPAKLLALKEIFMTNLNDRESDKSFGDMISEVKIIKQQLRHPNIVRYRRIFVENHRLYIVMDLIQGCSLRDLIITMKEKKGNFEEKKIWAMVVQMMLALRYLHKEKQIVHRDLKPNNIMMTTDERVVITDFGLAKQKGPEYLKSAAGTIIYSCPEIVQNLPYGEKADIWSFGCCIYEMCQLQPVFHSTNMLTLAMQIVEAKYDPLNEMWSDDLRFLITSCLAPDPSARPDILKVSGMCGVRLLEYLDDVARQQASTSDMTASQSSYNIKIDESPSSLNSSTSSYKRPGRSSKTSGSGKLPPINPAPRRNHSMSAGETPRPSSIVCLPRITDKYSVMFPSAPSAIPSRRRVQTCSTEHPARSSSSTELKVSKQSDGLTVSSNVLRQIQDPVLTILNQIHRILVVTDKETISTSMNHQRRLVEMFRKNLLGRENDAVQMKTHLRKLAAESPEEIQMNLGFSDFRPVLVQSHINGYQKDQKVTKITYEQLSACIECLIAENPAAK	soluble
GAMAPATCEKPKFLEYKTCVGDLTVVIAKALDEFKEFCIVNAANEHMTHGSGVAKAIADFCGLDFVEYCEDYVKKHGPQQRLVTPSFVKGIQCVNNVVGPRHGDNNLHEKLVAAYKNVLVDGVVNYVVPVLSLGIFGVDFKMSIDAMREAFEGCTIRVLLFSLSQEHIDYFDVTCK	soluble
MGSDKIHHHHHHMGKIISKFVCHECGYETPKWLGKCPGCSAWNSLLEESISNKPLRRTAERVAAIPLNQLSAEDSPRFSSGLSEFDRVLGGGIVPGSLILLGGDPGIGKSTLLLQVAGLIAAAGKRILYLSGEESLQQIRLRASRLGINNDTIFLLNEQDIDLLHEYINDLDPDLIIIDSIQTVYSSKLSSIPGSVSQLRESTAAVMQIAKKMDKAVFLVGHVTKDGSLAGPKVLEHIVDVVVYFEGEKNFSFRLLRAAKNRFGATDEIALLEMSGQGLVEVPDPSYVFLSPGRDISSGTAIVASMEGSRPLLIEIQALVSSLGAGYPRRMVSGIDQNRLSLIIAVLEKRRGYTLSACDVYLKVSGGVFLKDPSVDLGIAAAVLSSYLEKPLAMDTVFIGEISLSGQIRPVSFLDLRLREIDRMGYKRVIVPTSPGRLAKSSHNMEILEVKSLDHFIDIVLEG	not soluble
SKARTVAGPVGGSLSVQCPYEKEHRTLNKYWCRPPQIFLCDKIVETKGSAGKRNGRVSIRDSPANLSFTVTLENLTEEDAGTYWCGVDTPWLQDFHDPVVEVEVSVFPAS	soluble
SKDIDMGKEYIIPSPGYRSDRDRSAVPGQHRDPEEPRFRRTRSLECQDALETAARVEGLSLDISVHSHLQILDEEHSKGKYHHGLSVLKPFRTTTKHQHPVDNAGLFSYMTFSWLSPLARVVHKKGELLMEDVWPLSKYESSDVNSRRLERLWQEELNEVGPDAASLRRVVWIFCRTRLILSIVCLMITQLAGFSGPNFQDGCILRSE	soluble
MSLTYILRRSQLLLIVSSYQLVHYLCSQLSSLKDASCMCAYILTTLYKDIDMELAEKDKGRDFTLRNARMDDIDQIIKINRLTLPENYPYYFFVEHLKEYGLAFFVAIVDNSVVGYIMPRIEWGFSNIKQLPSLVRKGHVVSIAVLEEYRRKGIATTLLEASMKSMKNDYNAEEIYLEVRVSNYPAIALYEKLNFKKVKVLKGYYADGEDAYLMARPLEGHHHHHH	not soluble
MAAAAKPNNLSLVVHGPGDLRLENYPIPEPGPNEVLLRMHSVGICGSDVHYWEYGRIGNFIVKKPMVLGHEASGTVEKVGSSVKHLKPGDRVAIEPGAPRENDEFCKMGRYNLSPSIFFCATPPDDGNLCRFYKHNAAFCYKLPDNVTFEEGALIEPLSVGIHACRRGGVTLGHKVLVCGAGPIGMVTLLVAKAMGAAQVVVTDLSATRLSKAKEIGADLVLQISKESPQEIARKVEGQLGCKPEVTIECTGAEASIQAGIYATRSGGTLVLVGLGSEMTTVPLLHAAIREVDIKGVFRYCNTWPVAISMLASKSVNVKPLVTHRFPLEKALEAFETFKKGLGLKIMLKCDPSDQNP	not soluble
MSLKGSEVITKFSKVDTIMFDKTGTLTYGDPRVSQVKKYGQGQLAEQLLVSVEKESAHPLAKAITGYYEDLEAEEVEASRVLQGGGIVAQVAGQQVLVGNRYLLDQYHVLVTKEMERDMEELASAGNSLVLVAVNGQLELALGLKDEIRAGVKEDLAALKKQGVKNLLLLSGDNQKTVDLVAEELGPTEAYGQLLPEDKAEFVKKRQAAGEIVAFVGDGINDSPSLARADIGIAMGSGTDVAIETSNVVLMNGSFDRIPRALALAKATRRNMIENEGHHHHHH	soluble
MSLDVSAYPFFRRDMSWLSFNERVLMEAADRTLPVYDRIKFLSIFSSNLEEFYTVRVAYHQAVLQKRRDRSEAEEDSDADAHILQAIRETVIRQDELYYRIFYDQILPTLEEHGIRLRTHAPTHPDHKAYLRRFFHEEIFPLLYPMLLLPSKVRTFIRSGRVYLAVRLKEKETDEAYSYALLNVPTDGLPRFVELPRLQTDTFYYYSFLEDIIKEHLDVVFPGYEVMDSYSIKVSRDADLLLDAQRPEDLPGEIRKKVKTRKLGAPTRFMYDGRMPDEVLRYICSSCDIDPEEAIRSGNYVNLQDLAMLPNPFAPRLETLTPEPLLSKHLEQAPSLMEGIRRKDYLIHVPYYTYDYVVRLLMEAAISPDVSEIRLTQYRVAENSSIISALEAAAQSGKKVSVFVELKARFDEENNLRLSERMRRSGIRIVYSMPGLKVHAKTALILYHTPAGERPQGIALLSTGNFNETTARIYSDTTLMTANTDIVHDVYRLFRILDGDPEPARFSRLLVARYNMGEAITNLIEREIENVKRGKRGYMLLKMNGLQDKNVITQLYRASEAGVEIDLIVRGICCLVPDMPQSRNIRVTRLVDMYLEHSRIWCFHNGGKEEVFISSADWMKRNLYNRIETACPVLDPTLRREIIDILEIQLRDNIKACRIDSSLNNIYKHNSDEKPVRAQAAIYRYLKGKEETTPAAKEGHHHHHH	soluble
MKFKYGATLFSGFLGLSAILAACGAKGKFDQVDDGKIVLASSLTSKNAANALQAVVEKYNQVKGGNDYPIEITQITGGYDGGRGNLQTKLSVKDKTTFYNLI	soluble
MGSDKIHHHHHHMTEKEIVDYIKNNDIQKIKFAFADIDGVLRGKLIHTDKFLDGLKEGLGFCDVVFGWDSADAGYDNVSATGWHTGYPDKLAQIDLSTFRLIPWENNTPFFLADYKNNDQTALPICPRTLLKRIAQECSAMGYHAAFAQEFEWFNFRETQQSLVEKNFHDLTPLTNGMFGYSILRPSLEDAYYNDLFDLLGAFDIPLEGLHTETGPGVYECAYFHDEVVRAADKATLLKTAVKEIANKHGIIATFMAKISDKLPGCSGHIHQSLWNTGKTENLFYDPNQEHNMSDLFKHYVAGQLYCLPHIVPMLAPTVNSYKRLVEGAWAPTTLTWGFDNRTTALRVLNHSKKTARLEQRVSGSDTNPYLAIAASLASGLYGIKHKLSLDVPPTTGNGYANKSNGSIASNLMDATQLMKNSSIAKELFGEAFVQHFTATREWEWRQFSKHVSDWEMKRYMEII	not soluble
MAHHHHHHMNRIPAATRNAPMYATAMSQFAVCRQPWNEYISLLTKDDAQPFHTTPQEKPAYRGRKRGREGWLFGQQVQLHYHRFPDEQLFTNLTRWRMGDTVGDVAIQQFRNAQPFDIEDKDPQGFQRPAPEVYMKLNYKNPATISRFLTRTGHMYPQDIMPLNPEAVVKLRVAKAQAIRIGLYPRFGNPFWFRSQSFRPKAYQENYDPTTYSTKHTMEHFAYNWVQTDRIRQYFKGLEELHQSRRATASSGGGGVTSEHKQQSQLYALDNMSIEMHRNAPSYRADVERSIKKPTVPGLMSTKGMKKKFHNLYSSTSTKRMGFSNPTLGIKKV	not soluble
RFSEVLSTPEYDNAKSPVTLALGHDIGGKPVITDLAKMPHLLVAGTTGSGKSVGVNAMILSILFKSGPEDAKLIMIDPKMLELSIYEGIPHLLCPVVTDMKDAANALRWSVAEMERRYKLMAKMGVRNLSGFNQKVKEAQDAGEPLADPLYKRESIHDEAPLLTKLPTIVVVVDEFADMMMIVGKKVEELIARIAQKARAAGIHLILATQRPSV	not soluble
TPSRVEAFDNSNIHGTDPVSAMVTFLDGKPSKNDYRKYKIKTVEGPDDYATMREVIRRRYWRVLKEGLPMPDLILIDGGKGQIDSAKDVLTNELGLDIPVAGLAKDDKHRTSQLLFGDPLEIVPLERNSQEFYLLQRMQDEVHRFAITFHRQLRSKTGFQSILDGIPG	not soluble
MGSDKIHHHHHHMINRSLGISCGLVIVLAGCSETTTKDSSKTVPKTSETVKSDIIFKNLRTPWNIEKNQEVFYITEREGTIVKGTEGNYSRTDLELTEPVVAQGEGGLLGMALDPDFSKNRTAYVYHTYEKDGALWNRIIAIKEEKESWKEQRVLLDKIPGATIHNGGRIEIGPDGLLYVTAGDAAVPENAQKLSSLSGKILRMKLDGKPADGNVKEYIYSYGHRNPQGLVFVDQTLYATEHGQNGHDEINRIEQKNYGWPLIEGTEKQQGLVTPWYEVGEKSIAPSGVAEQNGKLYFGTLVGQSLRSIETESSKVEQIVTDRGRIRDVMTDGKELYYVTNNTDGRGNSSDEDDVLVRLKP	not soluble
MKNVKTIAAAVVLATMTFGASAAEYVSPSQAQNLEKAGVVTATAQDLSSLQSQLAAKAEKAGAKAYTITSATGNDQLRGSAVIFN	not soluble
